Experimental data reported in patent US20210079109A1 (Regeneron, published 2021).
Where a chain is given by its changes, count along the chain named.

T1: human CD63 (human, UniProt P08962 2-238)
T1 construct: stably transfected in NIH3T3/hCD63; The cell line is named under assay; also called hCD63
T1 sequence: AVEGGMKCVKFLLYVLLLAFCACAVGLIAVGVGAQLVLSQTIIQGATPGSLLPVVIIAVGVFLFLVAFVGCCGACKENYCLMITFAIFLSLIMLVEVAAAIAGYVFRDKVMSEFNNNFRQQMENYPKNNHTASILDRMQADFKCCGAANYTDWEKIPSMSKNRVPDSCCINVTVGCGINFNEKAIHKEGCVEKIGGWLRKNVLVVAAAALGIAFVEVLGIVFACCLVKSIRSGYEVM

B1: H1M12362N (antibody, V domains shown)
VH: QVQLVESGGGLVKPGGSLRLSCAASGFIFSDYYINWIRQAPGKGLEWVSYTSSSGSTTYYEDSVKGRFTMSRDNARNLVYLQMNSLRAEDTAAYYCVRDLRYNDGLDVWGQGTTVTVSS
VL: DILLTQSPSSLSASVGDRVTITCRASQSIRTYLNWYQQKPGRAPKLLVYAASSLQSGVPSRFSGSGSGTDFTLTISSLQPEDFATYFCQQSYDNPPITFGQGTRLAIK
B2: H2M13022N (antibody, V domains shown)
VH: B1 VH with K13Q, S30G, E46Q, R76K, T116I
VL: B1 VL with S14F, S28N, S53T, T85S
notes: also called H2bM13022N
B3: H2M12452N (antibody, V domains shown)
VH: QVQLQEAGPGLVKPSETLSLTCIVSGGSISGFYWNWIRQPPGKGLEWIGYFLYSGTIDYNPSLKSRVTISVDTSKNQFFLKLSFVTAADTAVYYCVRMGLGANAFDIWGRGTMVTVSS
VL: EIVLTQSPGTLSLSPGERATLSCRASQTVSRSFLAWYQQKPGQAPRLLIYGPSSRATGIPDRFSGSGSGTDFTLTISRLEPEDFAVYYCQQYGNSPWTFGQGTKVEIK
notes: also called H2aM12452N
B4: H3M12361N (antibody, V domains shown)
VH: EVQLVESGGGLVQPGRSLRLSCTASGFTFGDHAMHWVRQAPGKGLEGVSSINWNSGIIGYAESVKGRFTISRDNAKNSLYLQMNNLRAEDTGLYYCARDIGVATLGIDYWGQGTLVTVSS
VL: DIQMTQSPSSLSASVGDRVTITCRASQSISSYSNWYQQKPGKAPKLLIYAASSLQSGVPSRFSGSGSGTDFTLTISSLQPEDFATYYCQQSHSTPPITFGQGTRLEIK
B5: H4H11996P2 (antibody, V domains shown)
VH: QVQLVESGGGLVKPGGSLRLSCAASGFIFTDYFMNWIRQAPGKGLEWVSYISNSGNILYYADSVKGRFTISRDNAKASLYLQMSSLKAEDTAVYYCVRDPRMFYGMDVWGQGTTVTVSS
VL: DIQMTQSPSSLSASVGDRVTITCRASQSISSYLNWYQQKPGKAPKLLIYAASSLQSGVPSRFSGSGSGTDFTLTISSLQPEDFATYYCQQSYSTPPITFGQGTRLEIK

target: T1, human CD63; experiment: ECL, NIH3T3/hCD63 cells
Protocol: (§1) LNCAP cells were determined to have a lower human CD63 copy number than U87MG cells. Non-transfected NIH3T3 cells, which have no detectable expression of human CD63 by fluorescence activated cell sorting (FACS), were included as a negative control.
(§2) Briefly, cell lines were rinsed once in PBS buffer without Ca²⁺/Mg²⁺ and incubated for 10 minutes at 37° C. with Enzyme Free Cell Dissociation Solution (Millipore, Cat #S-004-C) to detach the cells. Cells were then washed once with PBS with Ca²⁺/Mg²⁺ and counted with a Cellometer™ Auto T4 cell counter (Nexcelom Bioscience, LLC). Approximately 2.0×10⁴ NIH3T3/hCD63, LNCAP, U87MG or NIH3T3 cells were seeded separately onto 96-well carbon electrode plates […]) and were then incubated for one hour at 37° C. Nonspecific binding sites were blocked with 2% BSA (w/v) in PBS with Ca²⁺/Mg²⁺ for one hour at room temperature (RT). Solutions containing anti-CD63 antibodies or isotype control antibodies at a range of concentrations (1.7 pM to 100 nM) in 0.5% BSA (w/v) in PBS with Ca²⁺/Mg²⁺, as well as control buffer alone, were then added in duplicate to the plate-bound NIH3T3/hCD63, LNCAP, U87MG or NIH3T3 cells and incubated for one hour at RT. Plates were subsequently washed to remove unbound antibodies using an AquaMax2000 plate washer with a cell washing head (MDS Analytical Technologies). […] Plates were washed and then incubated with Read Buffer (MSD, Cat #R92TD-2) according to the manufacturer's instructions. Luminescent signals were measured using a SECTOR Imager (MSD).

Row | EC50 [nM] | binding ratio at 3.7 nM vs NIH3T3 [fold] | Binder
1 | 0.63 | 283 | B1
2 | 0.45 | 95 | B2
3 | 0.61 | 593 | B3
4 | 0.81 | 243 | B4
5 | 0.98 | 188 | B5

target: T2, recombinant human CD63 extracellular loop 2 expressed with a C-terminal human Fc tag (human); experiment: SPR Biacore, mAb captured, 37C
T2 construct: also called hCD63 EC loop 2-hFc; human CD63 EC loop 2-Fc
T2 sequence (chain, as listed by the source limits assumed): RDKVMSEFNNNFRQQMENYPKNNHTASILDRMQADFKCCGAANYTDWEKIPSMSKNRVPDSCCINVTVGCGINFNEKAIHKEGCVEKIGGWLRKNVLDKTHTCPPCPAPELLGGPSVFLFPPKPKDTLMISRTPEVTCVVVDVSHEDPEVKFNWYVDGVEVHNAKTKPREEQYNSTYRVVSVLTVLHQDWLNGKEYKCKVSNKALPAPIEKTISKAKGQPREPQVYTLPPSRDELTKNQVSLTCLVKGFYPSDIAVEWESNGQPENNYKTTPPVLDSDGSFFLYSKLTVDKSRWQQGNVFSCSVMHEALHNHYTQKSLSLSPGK
Protocol: (§3) Equilibrium dissociation constants (KD) for different CD63 (EC2) loop reagents binding to purified anti-CD63 monoclonal antibodies were determined using a real-time surface plasmon resonance based Biacore T200 biosensor or Biacore 2000 biosensor. All binding studies were performed in 10 mM HEPES, 150 mM NaCl, 3 mM EDTA, and 0.05% v/v Surfactant Tween-20, pH 7.4 (HBS-ET) running buffer at 25° C. and 37° C. The Biacore CMS sensor chip surface was first derivatized by amine coupling with either a rabbit anti-mouse Fc specific polyclonal antibody (GE Healthcare, Cat #BR100838) or an anti-human Fab kit (GE Healthcare, Cat #28958325) to capture anti-CD63 monoclonal antibodies. […] The association rate (Kₐ) and dissociation rate (kd) were determined by fitting the real-time binding sensorgrams to a 1:1 binding model with mass transport limitation using Scrubber 2.0c curve-fitting software. Binding dissociation equilibrium constant (KD) and dissociative half-life (t½) were calculated from the kinetic rates as: […]
(§4) Binding kinetics parameters for human CD63 EC loop 2 protein binding to different anti-CD63 monoclonal antibodies of the invention at 25° C. and 37° C. are shown in Tables 6 through 9.

Row | 100 nM Ag Bound (RU) | Kd [nM] | koff [s⁻¹] | kon [M⁻¹ s⁻¹] | t1/2 [min] | Binder
6 | 118 | 0.977 | 0.000669 | 685000 | 17 | B1
7 | 107 | 1.01 | 0.000562 | 557000 | 21 | B2
8 | 104 | 1.1 | 0.000857 | 779000 | 13 | B3
9 | 97 | 0.568 | 0.00037 | 651000 | 31 | B4
10 | 294 | 0.264 | 0.000142 | 538000 | 81 | B5

target: T3, recombinant human CD63 extracellular loop 2 expressed with a C-terminal Myc-Myc-hexahistidine (human); experiment: SPR Biacore, mAb captured, 37C
T3 construct: also called hCD63 EC loop 2-MMH; human CD63 EC loop 2-MMH
T3 sequence (chain, as listed by the source limits assumed): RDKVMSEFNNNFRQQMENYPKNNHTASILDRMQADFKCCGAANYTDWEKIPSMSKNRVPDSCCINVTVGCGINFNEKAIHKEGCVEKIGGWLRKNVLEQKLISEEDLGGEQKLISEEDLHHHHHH
Protocol: as §3, §4

Row | 100 nM Ag Bound (RU) | Kd [nM] | koff [s⁻¹] | kon [M⁻¹ s⁻¹] | t1/2 [min] | Binder
11 | 32 | 19.5 | 0.0072 | 369000 | 2 | B1
12 | 31 | 21.5 | 0.00671 | 311000 | 2 | B2
13 | 34 | 6.98 | 0.00269 | 385000 | 4 | B3
14 | 39 | 5.85 | 0.00289 | 495000 | 4 | B4
15 | 46 | 361 | 0.0389 | 108000 | 0.3 | B5

target: T2, recombinant human CD63 extracellular …; experiment: SPR Biacore, mAb captured, 25C
Protocol: as §3, §4

Row | 100 nM Ag Bound (RU) | Kd [nM] | koff [s⁻¹] | kon [M⁻¹ s⁻¹] | t1/2 [min] | Binder
16 | 125 | 0.84 | 0.000399 | 477000 | 29 | B1
17 | 117 | 0.61 | 0.00028 | 460000 | 41 | B2
18 | 91 | 1.87 | 0.000228 | 122000 | 51 | B3
19 | 83 | 0.299 | 0.000132 | 441000 | 87 | B4
20 | 257 | 0.292 | 0.000135 | 461000 | 86 | B5

target: T3, recombinant human CD63 extracellular …; experiment: SPR Biacore, mAb captured, 25C
Protocol: as §3, §4

Row | 100 nM Ag Bound (RU) | Kd [nM] | koff [s⁻¹] | kon [M⁻¹ s⁻¹] | t1/2 [min] | Binder
21 | 51 | 12.7 | 0.00144 | 113000 | 8 | B1
22 | 48 | 13 | 0.00132 | 102000 | 9 | B2
23 | 35 | 7.33 | 0.000596 | 81300 | 19 | B3
24 | 43 | 3.12 | 0.000805 | 258000 | 14 | B4
25 | 61 | 84.9 | 0.014 | 165000 | 0.8 | B5

target: T1, human CD63; experiment: ECL, LNCAP cells
Protocol: as §1, §2

Row | EC50 [nM] | binding ratio at 3.7 nM vs NIH3T3 [fold] | Binder
26 | 0.57 | 16 | B1
27 | 0.32 | 8 | B2
28 | 0.74 | 37 | B3
29 | 1.1 | 19 | B4
30 | 4.4 | 7 | B5

target: T1, human CD63; experiment: ECL, U87MG cells
Protocol: as §1, §2

Row | EC50 [nM] | binding ratio at 3.7 nM vs NIH3T3 [fold] | Binder
31 | 0.56 | 174 | B1
32 | 0.85 | 71 | B2
33 | 2 | 260 | B3
34 | 1.3 | 111 | B4
35 | 8.1 | 57 | B5
